The results in this text go back to patent US20180085469A1.

What is called Kd is the free concentration of one partner at which half of the binding sites on the other are occupied at equilibrium, for simple one-to-one binding. The low end stands for higher affinity, the high end for lower affinity.

The target of assay [1] is Human trophoblast cell-surface antigen (TROP-2) (human) (UniProt P09758). Kind of assay: flow cytometry, surface, Capan-1 cells. On the technique in general: In flow cytometry, cells or beads pass a laser one at a time.
Chain of Human trophoblast cell-surface antigen (TROP-2) (human) (P09758 27-323): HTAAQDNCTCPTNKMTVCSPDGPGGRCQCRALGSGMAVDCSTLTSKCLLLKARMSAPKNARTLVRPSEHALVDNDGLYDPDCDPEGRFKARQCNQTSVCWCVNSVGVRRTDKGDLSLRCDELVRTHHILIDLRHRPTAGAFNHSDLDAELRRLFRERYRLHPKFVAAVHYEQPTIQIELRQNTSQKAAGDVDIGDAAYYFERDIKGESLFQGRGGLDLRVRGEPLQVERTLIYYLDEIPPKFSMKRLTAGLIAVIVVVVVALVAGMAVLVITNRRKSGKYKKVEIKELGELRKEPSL
The target is the same in assay [2]. Briefly: flow cytometry, surface, NCI-N87 cells.
The target in assay [3] is CD74 (invariant chain, Ii) (human) (UniProt P04233). Briefly: flow cytometry, surface and cytoplasmic (permeabilized), NCI-N87 cells; ratio to background.
Chain of CD74 (invariant chain, Ii) (human) (P04233 whole entry, change not shown): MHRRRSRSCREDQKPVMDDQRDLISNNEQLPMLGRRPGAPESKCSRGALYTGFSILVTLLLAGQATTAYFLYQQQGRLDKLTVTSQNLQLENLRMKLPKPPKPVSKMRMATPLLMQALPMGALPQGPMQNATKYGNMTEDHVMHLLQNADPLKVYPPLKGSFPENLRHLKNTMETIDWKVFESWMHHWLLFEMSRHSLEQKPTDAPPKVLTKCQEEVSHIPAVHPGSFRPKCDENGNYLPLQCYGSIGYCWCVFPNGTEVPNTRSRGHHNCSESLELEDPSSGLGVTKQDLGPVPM
Assay [4] has the same target. Briefly: flow cytometry, surface, HuH-7 cells, GAH-FITC detection.
For assay [5] the target is unchanged. Kind of assay: flow cytometry, surface and cytoplasmic (permeabilized), Hs746T cells.
Assay [6] shares this target. Kind of assay: flow cytometry, surface and cytoplasmic (permeabilized), Hep-G2 cells; ratio to background.
For assay [7] the target is unchanged. Briefly: flow cytometry, surface, Capan-1 cells; ratio to background (GAH-FITC only).
Assay [8] shares this target. Kind of assay: flow cytometry, surface and cytoplasmic (permeabilized), Capan-1 cells; ratio to background.
For assay [9] the target is unchanged. Kind of assay: flow cytometry, surface, Hep-G2 cells; ratio to background (GAH-FITC only).
For assay [10] the target is unchanged. Briefly: flow cytometry, surface and cytoplasmic (permeabilized), A-375 cells; ratio to background.
Assay [11] shares this target. Kind of assay: flow cytometry, surface, Capan-1 cells, GAH-FITC detection.
The target is the same in assay [12]. Kind of assay: flow cytometry, surface, Hs746T cells; ratio to background (GAH-FITC only).
The target is the same in assay [13]. Kind of assay: flow cytometry, surface, NCI-N87 cells, GAH-FITC detection.
Assay [14] shares this target. Briefly: flow cytometry, surface and cytoplasmic (permeabilized), Raji cells.
Assay [15] has the same target. Kind of assay: flow cytometry, surface, A-375 cells, GAH-FITC detection.
Assay [16] has the same target. Kind of assay: cell binding assay on antigen-positive cells.
For assay [17] the target is unchanged. Briefly: flow cytometry, surface, Hs746T cells, GAH-FITC detection.
Assay [18] has the same target. Briefly: flow cytometry, surface and cytoplasmic (permeabilized), A-375 cells.
Assay [19] shares this target. Briefly: flow cytometry, surface, NCI-N87 cells; ratio to background (GAH-FITC only).
For assay [20] the target is unchanged. Briefly: flow cytometry, surface and cytoplasmic (permeabilized), Capan-1 cells.
For assay [21] the target is unchanged. Briefly: flow cytometry, surface and cytoplasmic (permeabilized), NCI-N87 cells.
Assay [22] has the same target. Kind of assay: flow cytometry, surface, HuH-7 cells; ratio to background (GAH-FITC only).
Assay [23] shares this target. Briefly: flow cytometry, surface and cytoplasmic (permeabilized), Raji cells; ratio to background.
Assay [24] shares this target. Kind of assay: flow cytometry, surface, A-375 cells; ratio to background (GAH-FITC only).
For assay [25] the target is unchanged. Briefly: flow cytometry, surface and cytoplasmic (permeabilized), Hep-G2 cells.
Assay [26] shares this target. Kind of assay: flow cytometry, surface and cytoplasmic (permeabilized), HuH-7 cells.
For assay [27] the target is unchanged. Briefly: flow cytometry, surface, Raji cells; ratio to background (GAH-FITC only).
Assay [28] has the same target. Briefly: flow cytometry, surface and cytoplasmic (permeabilized), HuH-7 cells; ratio to background.
For assay [29] the target is unchanged. Briefly: flow cytometry, surface and cytoplasmic (permeabilized), Hs746T cells; ratio to background.
Assay [30] has the same target. Briefly: flow cytometry, surface, Hep-G2 cells, GAH-FITC detection.
For assay [31] the target is unchanged. Kind of assay: flow cytometry, surface, Raji cells, GAH-FITC detection.
Assay [32] has as its target CD22 (human) (UniProt P20273). Kind of assay: flow cytometry, Ramos cells, FITC goat anti-human IgG detection.
Assay [33] has as its target CD22 (human) (UniProt P20273). Briefly: flow cytometry, RS4;11 cells, FITC goat anti-human IgG detection.
The target in assay [34] is CD22 (human) (UniProt P20273). Kind of assay: flow cytometry, WSU-FSCCL cells, FITC goat anti-human IgG detection.
In assay [35] the target is CD22 (human) (UniProt P20273). Briefly: flow cytometry, Jeko-1 cells, FITC goat anti-human IgG detection.
Assay [36] deals with CD22 (human) (UniProt P20273). Briefly: flow cytometry, MN-60 cells, FITC goat anti-human IgG detection.
For assay [37], the target named is CD22 (human) (UniProt P20273). Briefly: flow cytometry, REH cells, FITC goat anti-human IgG detection.
Assay [38] concerns the target CD22 (human) (UniProt P20273). Kind of assay: flow cytometry, Daudi cells, FITC goat anti-human IgG detection.
Assay [39] concerns the target CD22 (human) (UniProt P20273). Briefly: flow cytometry, Raji cells, FITC goat anti-human IgG detection.
In assay [40] the target is CD22 (human) (UniProt P20273). Briefly: flow cytometry, 697 cells, FITC goat anti-human IgG detection.
Assay [41] has as its target T1, CD20 (human) (UniProt P11836).
T1 sequence (looked up): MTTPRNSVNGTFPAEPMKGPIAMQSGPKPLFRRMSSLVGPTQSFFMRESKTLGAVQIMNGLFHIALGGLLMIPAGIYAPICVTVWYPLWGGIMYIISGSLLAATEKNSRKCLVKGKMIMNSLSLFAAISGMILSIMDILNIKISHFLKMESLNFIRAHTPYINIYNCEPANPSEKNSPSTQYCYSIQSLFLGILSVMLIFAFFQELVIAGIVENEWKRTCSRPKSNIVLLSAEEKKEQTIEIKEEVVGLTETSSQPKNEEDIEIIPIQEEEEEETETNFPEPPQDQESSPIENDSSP
Briefly: flow cytometry, Ramos cells, FITC goat anti-human IgG detection.

The target in assay [42] is T1, CD20 (human). Briefly: flow cytometry, WSU-FSCCL cells, FITC goat anti-human IgG detection.
Assay [43] concerns the target T1, CD20 (human). Kind of assay: flow cytometry, Jeko-1 cells, FITC goat anti-human IgG detection.
In assay [44] the target is T1, CD20 (human). Briefly: flow cytometry, MN-60 cells, FITC goat anti-human IgG detection.
Assay [45] deals with T1, CD20 (human). Kind of assay: flow cytometry, REH cells, FITC goat anti-human IgG detection.
Assay [46] has as its target T1, CD20 (human). Briefly: flow cytometry, Daudi cells, FITC goat anti-human IgG detection.
For assay [47], the target named is T1, CD20 (human). Briefly: flow cytometry, Raji cells, FITC goat anti-human IgG detection.
In assay [48] the target is T1, CD20 (human). Kind of assay: flow cytometry, RS4;11 cells, FITC goat anti-human IgG detection (background 4.1).
The target of assay [49] is T1, CD20 (human). Briefly: flow cytometry, 697 cells, FITC goat anti-human IgG detection.
In assay [50] the target is CEACAM6 (human) (UniProt P40199). Kind of assay: flow cytometry, surface, HuH-7 cells.
Chain of CEACAM6 (human) (P40199 35-320): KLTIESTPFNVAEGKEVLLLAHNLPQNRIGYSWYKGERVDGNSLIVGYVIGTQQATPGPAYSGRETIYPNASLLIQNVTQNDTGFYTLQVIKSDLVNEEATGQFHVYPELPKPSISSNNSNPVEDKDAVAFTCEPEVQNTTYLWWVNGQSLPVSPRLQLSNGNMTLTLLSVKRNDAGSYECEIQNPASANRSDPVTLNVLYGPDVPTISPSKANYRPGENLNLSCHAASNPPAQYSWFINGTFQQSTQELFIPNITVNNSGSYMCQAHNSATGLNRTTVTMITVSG
Assay [51] has the same target. Kind of assay: flow cytometry, surface, Hep-G2 cells.
The target is the same in assay [52]. Briefly: flow cytometry, surface, NCI-N87 cells.

As for “humanized RS7 IgG (hRS7), anti-TROP-2 humanized antibody”, the MFI in assay [1] was 237; in assay [2] it was 795.

As to “milatuzumab (hLL1), humanized anti-CD74 antibody”, the MFI Ratio hLL1:bkgd was 36.7 in assay [3]; 31.2 in [6]; 1.8 in [7]; 49.6 in assay [8]; 1.5 in [9]; 30.8 in [10]. For the same molecule, the MFI Ratio hLL1:bkgd is 2.1 in assay [12]; 1.3 in assay [19]; 1.6 in assay [22]; 28.6 in assay [23]; 5.3 in assay [24]; 19.6 in [27]. Moreover, the results for the MFI Ratio hLL1:bkgd in assay [28] and in assay [29] were 28.5 and 28.8, respectively. The MFI in [4] amounted to 8; in assay [5], 144; in assay [11], 22; in assay [13], 5; in assay [14], 143; in assay [15] it was 16. Besides, the MFI in [17] came out at 17; in assay [18] it was 185; in assay [20], 248; in assay [21], 220; in [25] it was 156; in assay [26], 114. Moreover, the MFI in assay [30] stood at 9; in [31] it was 59. In assay [16], the Kd is 770 pM.

Take “epratuzumab (hLL2), humanized anti-CD22 IgG1 (antibody)”: the Median fluorescence amounted to 40.8 with CD22 (human) [32]; 23.3 in the assay with CD22 (human) [33]; 7.7 with CD22 (human) [34]; 11.2 with CD22 (human) [35]; 10.3 with CD22 (human) [36]; 22.9 in the assay with CD22 (human) [37]. In addition, the Median fluorescence stood at 145 with CD22 (human) [38], 45.9 in the assay with CD22 (human) [39] and 16 in the assay with CD22 (human) [40].

B1: veltuzumab (hA20), humanized anti-CD20 IgG1 (antibody, from a related filing, V domains shown, part only)
VH: QVQLQQSGAEVKKPGSSVKVSCKASGYTFTSYNMHWVKQAPGQGLEWIGAIYPGNGDTSYNQKFKGKATLTADESTNTAYMELSSLRSEDTAFYYCARSTYYGGDWYFDVWGQGTTVTVSS
VL: DIQLTQSPSSLSASVGDRVTMTCRASSSVSYIHWFQQKPGKAPKPWIYATSNLASGVPVRFSGSGSGTDYTFTISSLQPEDIATYYCQQWTSNPPTFGGGTKLEIK
With B1, the Median fluorescence with CD20 (human) [41] was 620; with CD20 (human) [42], 97.4; in the assay with CD20 (human) [43], 605; in the assay with CD20 (human) [44], 21.5; in the assay with CD20 (human) [45], 12.3; with CD20 (human) [46], 815. The Median fluorescence with CD20 (human) [47] amounted to 422; with CD20 (human) [48], 3.7; in the assay with CD20 (human) [49], 6.9.

B2: hMN-15, humanized anti-CEACAM6 antibody (antibody, from a related filing, IgG1, V domains shown)
VH: QVQLVESGGGVVQPGRSLRLSCSSSGFALTDYYMSWVRQAPGKGLEWLGFIANKANGHTTDYSPSVKGRFTISRDNSKNTLFLQMDSLRPEDTGVYFCARDMGIRWNFDVWGQGTPVTVSS
VL: DIQLTQSPSSLSASVGDRVTMTCSASSRVSYIHWYQQKPGKAPKRWIYGTSTLASGVPARFSGSGSGTDFTFTISSLQPEDIATYYCQQWSYNPPTFGQGTKVEIKR
Turning to B2, the results for the MFI with CEACAM6 (human) [50], in the assay with CEACAM6 (human) [51] and with CEACAM6 (human) [52] were 81, 175 and 1120, respectively.
